Starred links: 1 amine or outer side, 2 acyl side, 3 side chain; linkers in the order of their positions; H or OH if unused. Non-standard residues stand in square brackets, D forms with d. Groups on a side chain read outwards from the residue. No end group written: not given here. *: point of attachment. C18 diacid = O=C(O)CCCCCCCCCCCCCCCCC(=O)*; γGlu = O=C(O)[C@H](CCC(=O)[*:2])N[*:1]; αMeF = C[C@](N)(Cc1ccccc1)C(=O)O; AEEA = NCCOCCOCC(=O)O; Aib = CC(C)(N)C(=O)O
B1: Peptide 144 (peptide)
peptide: H[Aib]QGTFTSDVSK[αMeF]LDSK([γGlu-γGlu-AEEA-AEEA-γGlu-γGlu-C18 diacid])RARDFVRWLLE[Aib]G-OH
modifications: N-terminus assumed
SMILES: CC(C)C[C@H](NC(=O)[C@H](Cc1c[nH]c2ccccc12)NC(=O)[C@H](CCCNC(=N)N)NC(=O)[C@@H](NC(=O)[C@H](Cc1ccccc1)NC(=O)[C@H](CC(=O)O)NC(=O)[C@H](CCCNC(=N)N)NC(=O)[C@H](C)NC(=O)[C@H](CCCNC(=N)N)NC(=O)[C@H](CCCCNC(=O)CC[C@H](NC(=O)CC[C@H](NC(=O)COCCOCCNC(=O)COCCOCCNC(=O)CC[C@H](NC(=O)CC[C@H](NC(=O)CCCCCCCCCCCCCCCCC(=O)O)C(=O)O)C(=O)O)C(=O)O)C(=O)O)NC(=O)[C@H](CO)NC(=O)[C@H](CC(=O)O)NC(=O)[C@H](CC(C)C)NC(=O)[C@](C)(Cc1ccccc1)NC(=O)[C@H](CCCCN)NC(=O)[C@H](CO)NC(=O)[C@@H](NC(=O)[C@H](CC(=O)O)NC(=O)[C@H](CO)NC(=O)[C@@H](NC(=O)[C@H](Cc1ccccc1)NC(=O)[C@@H](NC(=O)CNC(=O)[C@H](CCC(N)=O)NC(=O)C(C)(C)NC(=O)[C@@H](N)Cc1c[nH]cn1)[C@@H](C)O)[C@@H](C)O)C(C)C)C(C)C)C(=O)N[C@@H](CC(C)C)C(=O)N[C@@H](CCC(=O)O)C(=O)NC(C)(C)C(=O)NCC(=O)O
B2: Peptide 145 (peptide)
peptide: H[Aib]QGTFTSDVSK[αMeF]LDSK([AEEA-AEEA-γGlu-C18 diacid])RAQDFVRWLASRGI-OH
modifications: N-terminus assumed
SMILES: CC[C@H](C)[C@H](NC(=O)CNC(=O)[C@H](CCCNC(=N)N)NC(=O)[C@H](CO)NC(=O)[C@H](C)NC(=O)[C@H](CC(C)C)NC(=O)[C@H](Cc1c[nH]c2ccccc12)NC(=O)[C@H](CCCNC(=N)N)NC(=O)[C@@H](NC(=O)[C@H](Cc1ccccc1)NC(=O)[C@H](CC(=O)O)NC(=O)[C@H](CCC(N)=O)NC(=O)[C@H](C)NC(=O)[C@H](CCCNC(=N)N)NC(=O)[C@H](CCCCNC(=O)COCCOCCNC(=O)COCCOCCNC(=O)CC[C@H](NC(=O)CCCCCCCCCCCCCCCCC(=O)O)C(=O)O)NC(=O)[C@H](CO)NC(=O)[C@H](CC(=O)O)NC(=O)[C@H](CC(C)C)NC(=O)[C@](C)(Cc1ccccc1)NC(=O)[C@H](CCCCN)NC(=O)[C@H](CO)NC(=O)[C@@H](NC(=O)[C@H](CC(=O)O)NC(=O)[C@H](CO)NC(=O)[C@@H](NC(=O)[C@H](Cc1ccccc1)NC(=O)[C@@H](NC(=O)CNC(=O)[C@H](CCC(N)=O)NC(=O)C(C)(C)NC(=O)[C@@H](N)Cc1c[nH]cn1)[C@@H](C)O)[C@@H](C)O)C(C)C)C(C)C)C(=O)O
B3: Peptide 146 (peptide)
peptide: H[Aib]QGTFTSDVSK[αMeF]LDSK([AEEA-AEEA-γGlu-C18 diacid])RAQDFVRWLASR-OH
modifications: N-terminus assumed
SMILES: CC(C)C[C@H](NC(=O)[C@H](Cc1c[nH]c2ccccc12)NC(=O)[C@H](CCCNC(=N)N)NC(=O)[C@@H](NC(=O)[C@H](Cc1ccccc1)NC(=O)[C@H](CC(=O)O)NC(=O)[C@H](CCC(N)=O)NC(=O)[C@H](C)NC(=O)[C@H](CCCNC(=N)N)NC(=O)[C@H](CCCCNC(=O)COCCOCCNC(=O)COCCOCCNC(=O)CC[C@H](NC(=O)CCCCCCCCCCCCCCCCC(=O)O)C(=O)O)NC(=O)[C@H](CO)NC(=O)[C@H](CC(=O)O)NC(=O)[C@H](CC(C)C)NC(=O)[C@](C)(Cc1ccccc1)NC(=O)[C@H](CCCCN)NC(=O)[C@H](CO)NC(=O)[C@@H](NC(=O)[C@H](CC(=O)O)NC(=O)[C@H](CO)NC(=O)[C@@H](NC(=O)[C@H](Cc1ccccc1)NC(=O)[C@@H](NC(=O)CNC(=O)[C@H](CCC(N)=O)NC(=O)C(C)(C)NC(=O)[C@@H](N)Cc1c[nH]cn1)[C@@H](C)O)[C@@H](C)O)C(C)C)C(C)C)C(=O)N[C@@H](C)C(=O)N[C@@H](CO)C(=O)N[C@@H](CCCNC(=N)N)C(=O)O
B4: Peptide 147 (peptide)
peptide: H[Aib]QGTFTSDVSK[αMeF]LDSK([AEEA-AEEA-γGlu-C18 diacid])RAQDFVRWLEA[Aib]G-OH
modifications: N-terminus assumed
SMILES: CC(C)C[C@H](NC(=O)[C@H](Cc1c[nH]c2ccccc12)NC(=O)[C@H](CCCNC(=N)N)NC(=O)[C@@H](NC(=O)[C@H](Cc1ccccc1)NC(=O)[C@H](CC(=O)O)NC(=O)[C@H](CCC(N)=O)NC(=O)[C@H](C)NC(=O)[C@H](CCCNC(=N)N)NC(=O)[C@H](CCCCNC(=O)COCCOCCNC(=O)COCCOCCNC(=O)CC[C@H](NC(=O)CCCCCCCCCCCCCCCCC(=O)O)C(=O)O)NC(=O)[C@H](CO)NC(=O)[C@H](CC(=O)O)NC(=O)[C@H](CC(C)C)NC(=O)[C@](C)(Cc1ccccc1)NC(=O)[C@H](CCCCN)NC(=O)[C@H](CO)NC(=O)[C@@H](NC(=O)[C@H](CC(=O)O)NC(=O)[C@H](CO)NC(=O)[C@@H](NC(=O)[C@H](Cc1ccccc1)NC(=O)[C@@H](NC(=O)CNC(=O)[C@H](CCC(N)=O)NC(=O)C(C)(C)NC(=O)[C@@H](N)Cc1c[nH]cn1)[C@@H](C)O)[C@@H](C)O)C(C)C)C(C)C)C(=O)N[C@@H](CCC(=O)O)C(=O)N[C@@H](C)C(=O)NC(C)(C)C(=O)NCC(=O)O
B5: Peptide 148 (peptide)
peptide: H[Aib]QGTFTSDVSK[αMeF]LDSK([AEEA-AEEA-γGlu-C18 diacid])RAQDFVRWIAE[Aib]G-OH
modifications: N-terminus assumed
SMILES: CC[C@H](C)[C@H](NC(=O)[C@H](Cc1c[nH]c2ccccc12)NC(=O)[C@H](CCCNC(=N)N)NC(=O)[C@@H](NC(=O)[C@H](Cc1ccccc1)NC(=O)[C@H](CC(=O)O)NC(=O)[C@H](CCC(N)=O)NC(=O)[C@H](C)NC(=O)[C@H](CCCNC(=N)N)NC(=O)[C@H](CCCCNC(=O)COCCOCCNC(=O)COCCOCCNC(=O)CC[C@H](NC(=O)CCCCCCCCCCCCCCCCC(=O)O)C(=O)O)NC(=O)[C@H](CO)NC(=O)[C@H](CC(=O)O)NC(=O)[C@H](CC(C)C)NC(=O)[C@](C)(Cc1ccccc1)NC(=O)[C@H](CCCCN)NC(=O)[C@H](CO)NC(=O)[C@@H](NC(=O)[C@H](CC(=O)O)NC(=O)[C@H](CO)NC(=O)[C@@H](NC(=O)[C@H](Cc1ccccc1)NC(=O)[C@@H](NC(=O)CNC(=O)[C@H](CCC(N)=O)NC(=O)C(C)(C)NC(=O)[C@@H](N)Cc1c[nH]cn1)[C@@H](C)O)[C@@H](C)O)C(C)C)C(C)C)C(=O)N[C@@H](C)C(=O)N[C@@H](CCC(=O)O)C(=O)NC(C)(C)C(=O)NCC(=O)O
B6: Peptide 149 (peptide)
peptide: H[Aib]QGTFTSDVSK[αMeF]LDSK([AEEA-AEEA-γGlu-C18 diacid])RAQDFVRWVVE[Aib]G-OH
modifications: N-terminus assumed
SMILES: CC(C)C[C@H](NC(=O)[C@](C)(Cc1ccccc1)NC(=O)[C@H](CCCCN)NC(=O)[C@H](CO)NC(=O)[C@@H](NC(=O)[C@H](CC(=O)O)NC(=O)[C@H](CO)NC(=O)[C@@H](NC(=O)[C@H](Cc1ccccc1)NC(=O)[C@@H](NC(=O)CNC(=O)[C@H](CCC(N)=O)NC(=O)C(C)(C)NC(=O)[C@@H](N)Cc1c[nH]cn1)[C@@H](C)O)[C@@H](C)O)C(C)C)C(=O)N[C@@H](CC(=O)O)C(=O)N[C@@H](CO)C(=O)N[C@@H](CCCCNC(=O)COCCOCCNC(=O)COCCOCCNC(=O)CC[C@H](NC(=O)CCCCCCCCCCCCCCCCC(=O)O)C(=O)O)C(=O)N[C@@H](CCCNC(=N)N)C(=O)N[C@@H](C)C(=O)N[C@@H](CCC(N)=O)C(=O)N[C@@H](CC(=O)O)C(=O)N[C@@H](Cc1ccccc1)C(=O)N[C@H](C(=O)N[C@@H](CCCNC(=N)N)C(=O)N[C@@H](Cc1c[nH]c2ccccc12)C(=O)N[C@H](C(=O)N[C@H](C(=O)N[C@@H](CCC(=O)O)C(=O)NC(C)(C)C(=O)NCC(=O)O)C(C)C)C(C)C)C(C)C
B7: Peptide 150 (peptide)
peptide: H[Aib]QGTFTSDVSK[αMeF]LDSK([AEEA-AEEA-γGlu-C18 diacid])RAQDFVQWLL[Aib]TE-OH
modifications: N-terminus assumed
SMILES: CC(C)C[C@H](NC(=O)[C@H](Cc1c[nH]c2ccccc12)NC(=O)[C@H](CCC(N)=O)NC(=O)[C@@H](NC(=O)[C@H](Cc1ccccc1)NC(=O)[C@H](CC(=O)O)NC(=O)[C@H](CCC(N)=O)NC(=O)[C@H](C)NC(=O)[C@H](CCCNC(=N)N)NC(=O)[C@H](CCCCNC(=O)COCCOCCNC(=O)COCCOCCNC(=O)CC[C@H](NC(=O)CCCCCCCCCCCCCCCCC(=O)O)C(=O)O)NC(=O)[C@H](CO)NC(=O)[C@H](CC(=O)O)NC(=O)[C@H](CC(C)C)NC(=O)[C@](C)(Cc1ccccc1)NC(=O)[C@H](CCCCN)NC(=O)[C@H](CO)NC(=O)[C@@H](NC(=O)[C@H](CC(=O)O)NC(=O)[C@H](CO)NC(=O)[C@@H](NC(=O)[C@H](Cc1ccccc1)NC(=O)[C@@H](NC(=O)CNC(=O)[C@H](CCC(N)=O)NC(=O)C(C)(C)NC(=O)[C@@H](N)Cc1c[nH]cn1)[C@@H](C)O)[C@@H](C)O)C(C)C)C(C)C)C(=O)N[C@@H](CC(C)C)C(=O)NC(C)(C)C(=O)N[C@H](C(=O)N[C@@H](CCC(=O)O)C(=O)O)[C@@H](C)O

Columns and labels:
[1] = target: human GLP-1 receptor (hGLP-1R) (human, UniProt P43220 24-463); assay: cell-based or functional assay
[2] = target: human glucagon receptor (hGCGR) (human, UniProt P47871 26-477); assay: cell-based or functional assay
human glucagon receptor (hGCGR), sequence (P47871 26-477): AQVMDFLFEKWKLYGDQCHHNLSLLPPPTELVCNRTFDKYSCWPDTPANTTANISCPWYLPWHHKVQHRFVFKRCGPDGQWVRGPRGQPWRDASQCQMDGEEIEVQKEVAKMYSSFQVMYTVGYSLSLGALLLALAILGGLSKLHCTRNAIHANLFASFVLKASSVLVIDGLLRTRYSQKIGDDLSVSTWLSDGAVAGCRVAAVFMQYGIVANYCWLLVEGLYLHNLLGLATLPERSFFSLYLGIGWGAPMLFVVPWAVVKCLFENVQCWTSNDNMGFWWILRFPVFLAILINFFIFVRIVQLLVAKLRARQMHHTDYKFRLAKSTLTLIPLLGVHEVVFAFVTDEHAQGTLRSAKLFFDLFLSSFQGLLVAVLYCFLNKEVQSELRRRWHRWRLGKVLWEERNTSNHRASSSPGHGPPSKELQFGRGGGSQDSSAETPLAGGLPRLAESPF

| Binder | hGLP-1R EC50 (pM) [1] | hGluc-R EC50 (pM) [2] |
| --- | --- | --- |
| B1 | 45.2 pM | 702 pM |
| B2 | 22.6 pM | 4590 pM |
| B3 | 24.6 pM | 1630 pM |
| B4 | 15.3 pM | 43.5 pM |
| B5 | 40.2 pM | 568 pM |
| B6 | 8.71 pM | 2650 pM |
| B7 | 166 pM | 355 pM |
